This note sets out measurements from the supplement of paper PMC9112550, “Optimization of the antimicrobial peptide Bac7 by deep mutational scanning” (BMC Biology, 2022).
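Also: peptides expressed intracellularly from a pBAD plasmid library in pooled LB shake-flask culture, induced with 0.3% L-arabinose, DNA abundance read by NGS, three biological replicates, DESeq2 with apeglm shrinkage.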

The test system of the series is Escherichia coli TOP10. In words: shrunken log2 fold change of peptide-encoding DNA abundance (4.5 h post-induction vs induction); higher = less antimicrobial activity (less host growth inhibition). The conditions noted are these: time post-induction: 4.5 h; library: site-saturation at positions 5, 18, 19, 20.
As to RRIRCRPPRLPRPRPRPTLFPRP, the “shrunken log2 fold change” value came out at 0.196.
With RRIRNRPPRLPRPRPRPLAEPRP the figure was 0.108.
To RRIRYRPPRLPRPRPRPVSFPRP belongs -0.717.
With RRIRARPPRLPRPRPRPAAHPRP the figure was 0.478; with RRIRYRPPRLPRPRPRPREEPRP, 0.0202; with RRIRGRPPRLPRPRPRPYLPPRP, -0.204.
RRIRCRPPRLPRPRPRPLCKPRP: the “shrunken log2 fold change” value is -0.541.
With RRIRRRPPRLPRPRPRPYFCPRP the figure was -0.285.
With RRIRQRPPRLPRPRPRPLCRPRP the figure was -0.272; with RRIRPRPPRLPRPRPRPLQDPRP, 0.151.
Consider RRIRMRPPRLPRPRPRPIIPPRP, for which the “shrunken log2 fold change” value was 0.000609.
For RRIRTRPPRLPRPRPRPGSFPRP, the “shrunken log2 fold change” value amounted to 0.00381.
With RRIRYRPPRLPRPRPRPPPAPRP the figure was 0.878.
As to RRIRQRPPRLPRPRPRPQTDPRP, the “shrunken log2 fold change” value was determined as 0.00346.
To RRIRQRPPRLPRPRPRPYQMPRP belongs -0.00133; to RRIRYRPPRLPRPRPRPNGYPRP, 0.122.
With RRIRVRPPRLPRPRPRPLQFPRP the figure was -0.149; with RRIRYRPPRLPRPRPRPQAEPRP, -0.0183.
With RRIRTRPPRLPRPRPRPLRWPRP the figure was 0.856.
In the case of RRIRARPPRLPRPRPRPDIRPRP, the “shrunken log2 fold change” value amounted to 0.148.
With RRIRARPPRLPRPRPRPYHLPRP the figure was -0.0107.
With RRIRNRPPRLPRPRPRPIVQPRP the figure was -0.236.
For the sequence RRIRERPPRLPRPRPRPWSSPRP, the “shrunken log2 fold change” value was 9.28e-05.
With RRIRYRPPRLPRPRPRPIYQPRP the figure was -0.614; with RRIRNRPPRLPRPRPRPIMAPRP, -0.187.
With RRIRERPPRLPRPRPRPWLEPRP the figure was 0.101; with RRIRLRPPRLPRPRPRPLSSPRP, -0.0447.
To RRIRVRPPRLPRPRPRPFCLPRP belongs -0.357; to RRIRYRPPRLPRPRPRPLFHPRP, -0.818; to RRIRARPPRLPRPRPRPKRKPRP, 0.654.
On to RRIRFRPPRLPRPRPRPMKNPRP, for which the “shrunken log2 fold change” value was -0.0862.
With RRIRSRPPRLPRPRPRPCVEPRP the figure was 0.0654; with RRIRRRPPRLPRPRPRPFYCPRP, -0.162; with RRIRKRPPRLPRPRPRPQLRPRP, 0.2.
Consider RRIRYRPPRLPRPRPRPFWFPRP, for which the “shrunken log2 fold change” value is -0.264.
To RRIRPRPPRLPRPRPRPLTLPRP belongs 0.121; to RRIRDRPPRLPRPRPRPMWPPRP, 0.316.
With RRIRYRPPRLPRPRPRPPCFPRP the figure was -0.242.
For RRIRPRPPRLPRPRPRPIDVPRP, the “shrunken log2 fold change” value was -0.148.
Take RRIRLRPPRLPRPRPRPMVMPRP: the “shrunken log2 fold change” value was -0.0937.
As to RRIRYRPPRLPRPRPRPRRMPRP, the “shrunken log2 fold change” value was -0.0427.
With RRIRVRPPRLPRPRPRPANSPRP the figure was -0.117; with RRIRARPPRLPRPRPRPLFNPRP, -0.064; with RRIRERPPRLPRPRPRPKPSPRP, 0.229.
To RRIRCRPPRLPRPRPRPTVCPRP belongs -0.0924; to RRIRSRPPRLPRPRPRPCTGPRP, -0.0404.
With RRIRYRPPRLPRPRPRPLLNPRP the figure was -0.19.
As to RRIRGRPPRLPRPRPRPSNKPRP, the “shrunken log2 fold change” value is -0.0675.
Regarding RRIRPRPPRLPRPRPRPHNHPRP, the “shrunken log2 fold change” value was -0.609.
As for RRIRERPPRLPRPRPRPSVNPRP, the “shrunken log2 fold change” value is -0.959.
As to RRIRVRPPRLPRPRPRPTLEPRP, the “shrunken log2 fold change” value is 0.413.
On to RRIRWRPPRLPRPRPRPHGGPRP, for which the “shrunken log2 fold change” value is -0.0606.
With RRIRWRPPRLPRPRPRPTEEPRP the figure was 0.12; with RRIRSRPPRLPRPRPRPPTEPRP, 0.194; with RRIRMRPPRLPRPRPRPESFPRP, 0.0441.
For the sequence RRIRGRPPRLPRPRPRPEESPRP, the “shrunken log2 fold change” value was 1.82.
Turning to RRIRPRPPRLPRPRPRPCYHPRP, the “shrunken log2 fold change” value is -0.428.
As for RRIRIRPPRLPRPRPRPMAVPRP, the “shrunken log2 fold change” value came out at 0.142.
As to RRIRRRPPRLPRPRPRPCTKPRP, the “shrunken log2 fold change” value is -0.147.
With RRIRERPPRLPRPRPRPRSMPRP the figure was -0.212; with RRIRIRPPRLPRPRPRPMFTPRP, -0.212.
To RRIRQRPPRLPRPRPRPHWLPRP belongs -0.222.
With RRIRTRPPRLPRPRPRPSWDPRP the figure was -0.262.
Take RRIRMRPPRLPRPRPRPETVPRP: the “shrunken log2 fold change” value worked out at 2.2.
Consider RRIRYRPPRLPRPRPRPPCAPRP, for which the “shrunken log2 fold change” value was found to be 2.51.
To RRIRKRPPRLPRPRPRPPDEPRP belongs 1.89; to RRIRLRPPRLPRPRPRPAFDPRP, -0.0259.
With RRIRGRPPRLPRPRPRPDTRPRP the figure was 0.162.
For RRIRNRPPRLPRPRPRPGQPPRP, the “shrunken log2 fold change” value was 0.0308.
Turning to RRIRYRPPRLPRPRPRPCELPRP, the “shrunken log2 fold change” value is -0.0555.
To RRIRTRPPRLPRPRPRPYMMPRP belongs 0.0264; to RRIRPRPPRLPRPRPRPTQGPRP, 0.753; to RRIRLRPPRLPRPRPRPRFYPRP, 0.074.
With RRIRHRPPRLPRPRPRPFAWPRP the figure was -0.186; with RRIRKRPPRLPRPRPRPAEHPRP, 0.12; with RRIRSRPPRLPRPRPRPATMPRP, 0.00669.
For RRIRGRPPRLPRPRPRPHNTPRP, the “shrunken log2 fold change” value was -0.277.
With RRIRRRPPRLPRPRPRPGRIPRP the figure was 0.0214; with RRIRGRPPRLPRPRPRPMRVPRP, 1.65.
With RRIRTRPPRLPRPRPRPGMTPRP the figure was -0.2.
For RRIRGRPPRLPRPRPRPHKCPRP, the “shrunken log2 fold change” value is -0.111.
With RRIRFRPPRLPRPRPRPDHIPRP the figure was -0.00578; with RRIRMRPPRLPRPRPRPQWWPRP, 0.245.
To RRIRQRPPRLPRPRPRPCDHPRP belongs 0.00902; to RRIRDRPPRLPRPRPRPIMQPRP, -0.0521.
With RRIRARPPRLPRPRPRPIHKPRP the figure was -0.0416; with RRIRERPPRLPRPRPRPYCIPRP, -0.205.
Take RRIRARPPRLPRPRPRPDHDPRP: the “shrunken log2 fold change” value is 0.592.
With RRIRRRPPRLPRPRPRPPACPRP the figure was 0.619.
For RRIRQRPPRLPRPRPRPPRYPRP, the “shrunken log2 fold change” value amounted to 0.606.
On to RRIRMRPPRLPRPRPRPKGRPRP, for which the “shrunken log2 fold change” value is -0.00141.
With RRIRSRPPRLPRPRPRPWLHPRP the figure was -0.254.
With RRIRCRPPRLPRPRPRPPPRPRP, the “shrunken log2 fold change” value turned out to be 1.9.
On to RRIRYRPPRLPRPRPRPDNQPRP, for which the “shrunken log2 fold change” value is -0.644.
Regarding RRIRVRPPRLPRPRPRPISHPRP, the “shrunken log2 fold change” value was -0.326.
To RRIRWRPPRLPRPRPRPLMTPRP belongs 0.47; to RRIRFRPPRLPRPRPRPFAVPRP, -0.354; to RRIRWRPPRLPRPRPRPQVIPRP, -0.127.
As to RRIRHRPPRLPRPRPRPIFYPRP, the “shrunken log2 fold change” value was -0.204.
Turning to RRIRPRPPRLPRPRPRPCFEPRP, the “shrunken log2 fold change” value was 0.0232.
With RRIRGRPPRLPRPRPRPCEPPRP the figure was 0.241.
For RRIRYRPPRLPRPRPRPTCNPRP, the “shrunken log2 fold change” value is -0.351.
Regarding RRIRERPPRLPRPRPRPATHPRP, the “shrunken log2 fold change” value was -0.264.
On to RRIRGRPPRLPRPRPRPYMAPRP, for which the “shrunken log2 fold change” value was -0.388.
Regarding RRIRIRPPRLPRPRPRPITKPRP, the “shrunken log2 fold change” value is -0.123.
On to RRIRYRPPRLPRPRPRPRLQPRP, for which the “shrunken log2 fold change” value turned out to be 0.196.
For the sequence RRIRRRPPRLPRPRPRPLCPPRP, the “shrunken log2 fold change” value was 1.21.
With RRIRFRPPRLPRPRPRPRISPRP the figure was -0.0207.
As to RRIRKRPPRLPRPRPRPVIAPRP, the “shrunken log2 fold change” value turned out to be 0.437.
With RRIRKRPPRLPRPRPRPKCQPRP the figure was 0.03; with RRIRCRPPRLPRPRPRPCWMPRP, -0.404; with RRIRERPPRLPRPRPRPQQQPRP, 0.00378.
With RRIRHRPPRLPRPRPRPGHNPRP the figure was -0.166; with RRIRQRPPRLPRPRPRPQGSPRP, 0.0165; with RRIRVRPPRLPRPRPRPGRHPRP, 0.0728.
On to RRIRCRPPRLPRPRPRPSKTPRP, for which the “shrunken log2 fold change” value is -0.0722.
With RRIRYRPPRLPRPRPRPMRGPRP the figure was 0.156.
Consider RRIRKRPPRLPRPRPRPHECPRP, for which the “shrunken log2 fold change” value was determined as 0.286.
With RRIRARPPRLPRPRPRPYCRPRP the figure was -0.885.
Regarding RRIRFRPPRLPRPRPRPEPGPRP, the “shrunken log2 fold change” value is 0.534.
In the case of RRIRSRPPRLPRPRPRPRAYPRP, the “shrunken log2 fold change” value is 0.031.
On to RRIRNRPPRLPRPRPRPRSCPRP, for which the “shrunken log2 fold change” value turned out to be 0.763.
To RRIRGRPPRLPRPRPRPYYIPRP belongs -0.233; to RRIRRRPPRLPRPRPRPWKVPRP, 0.00548; to RRIRIRPPRLPRPRPRPPTQPRP, 0.215.
